Reference: patent US20040259244A1, “Methods, compositions, and growth and differentiation factors for insulin-producing cells” (priority 2002, published 2004)

Test system: conversion of stem cells into insulin producing cells
Type: cell-based
Conditions: statistical analysis of insulin content of supernatants, 3 donors, combinatorial array in alginate

B1: Prolactin: A growth factor with strong structural similarity to growth hormone (protein, UniProt P01236 29-227, looked up)
Prolactin: LPICPGGAARCQVTLRDLFDRAVVLSHYIHNLSSEMFSEFDKRYTHGRGFITKAINSCHTSSLATPEDKEQAQQMNQKDFLSLIVSILRSWNEPLYHLVTEVRGMQEAPEAILSKAVEIEEQTKRLLEGMELIVSQVHPETKENEIYPVWSGLPSLQMADEESRLSAYYNLLHCLRRDSHKIDNYLKLLKCRIIHNNNC
  effect on the conversion of stem cells into insulin producing cells: potential negative effect

B2: BMP-4: Bone Morphogenic Protein (protein, UniProt P12644 293-408, looked up)
Bone morphogenetic protein 4: SPKHHSQRARKKNKNCRRHSLYVDFSDVGWNDWIVAPPGYQAFYCHGDCPFPLADHLNSTNHAIVQTLVNSVNSSIPKACCVPTELSAISMLYLDEYDKVVLKNYQEMVVEGCGCR
  effect on the conversion of stem cells into insulin producing cells: potential negative effect

B3: TGF beta sRII: TGF beta soluble receptor type 2 (protein, UniProt P37173 23-166, looked up)
extracellular domain: TIPPHVQKSVNNDMIVTDNNGAVKFPQLCKFCDVRFSTCDNQKSCMSNCSITSICEKPQEVCVAVWRKNDENITLETVCHDPKLPYHDFILEDAASPKCIMKEKKKPGETFFMCSCSSDECNDNIIFSEEYNTSNPDLLLVIFQ
modifications: extracellular domain
  effect on the conversion of stem cells into insulin producing cells: potential positive effect

B4: Soybean Trypsin Inhibitor: A high-molecular-weight protein (approximately 22,500) containing 198 amino acid residues (protein, UniProt P01070 25-205, looked up)
Trypsin inhibitor A: DFVLDNEGNPLENGGTYYILSDITAFGGIRAAPTGNERCPLTVVQSRNELDKGIGTIISSPYRIRFIAEGHPLSLKFDSFAVIMLCVGIPTEWSVVEDLPEGPAVKIGENKDAMDGWFRLERVSDDEFNNYKLVFCPQQAEDDKCGDIGISIDHDDGTRRLVVSKNKPLVVQFQKLDKESL
  effect on the conversion of stem cells into insulin producing cells: potential negative effect

B5: Activin A: growth and differentiation factor (protein, UniProt P08476 311-426, looked up)
Inhibin beta A chain: GLECDGKVNICCKKQFFVSFKDIGWNDWIIAPSGYHANYCEGECPSHIAGTSGSSLSFHSTVINHYRMRGHSPFANLKSCCVPTKLRPMSMLYYDDGQNIIKKDIQNMIVEECGCS
  effect on the conversion of stem cells into insulin producing cells: potential negative effect

B6: P1GF: Placental GF, human (protein, UniProt P49763 19-221, looked up)
Placenta growth factor: LPAVPPQQWALSAGNGSSEVEVVPFQEVWGRSYCRALERLVDVVSEYPSEVEHMFSPSCVSLLRCTGCCGDENLHCVPVETANVTMQLLKIRSGDRPSYVELTFSQHVRCECRHSPGRQSPDMPGDFRADAPSFLPPRRSLPMLFRMEWGCALTGSQSAVWPSSPVPEEIPRMHPGRNGKKQQRKPLREKMKPERCGDAVPRR
  effect on the conversion of stem cells into insulin producing cells: potential negative effect

B7: KGF: keratinocyte growth factor or FGF-7 (protein, UniProt P21781 32-194, looked up)
Fibroblast growth factor 7: CNDMTPEQMATNVNCSSPERHTRSYDYMEGGDIRVRRLFCRTQWYLRIDKRGKVKGTQEMKNNYNIMEIRTVAVGIVAIKGVESEFYLAMNKEGKLYAKKECNEDCNFKELILENHYNTYASAKWTHNGGEMFVALNQKGIPVRGKKTKKEQKTAHFLPMAIT
  effect on the conversion of stem cells into insulin producing cells: potential positive effect

B8: Betacellulin: growth and differentiation factor (protein, UniProt P35070 32-111, looked up)
Betacellulin: DGNSTRSPETNGLLCGDPEENCAATTTQSKRKGHFSRCPKQYKHYCIKGRCRFVVAEQTPSCVCDEGYIGARCERVDLFY
  effect on the conversion of stem cells into insulin producing cells: potential positive effect
